The source of these data is paper PMC8930771, “Structural basis of phosphatidylinositol 3-kinase C2α function” (Nature Structural & Molecular Biology, 2022).

Test [1] deals with T1, PI3KC2α^ΔN+ΔPX−C2 WT (mouse PI3KC2α amino acids 377–1,400) (mouse, UniProt Q61194 377-1400).
T1 construct: Phosphatidylinositol 3-kinase type 2α (PI3KC2α), mouse, amino acids 377-1,400; lacks the disordered N-terminal region and the distal PX and C-C2 domains; Cloned into pFL10His; The purification paragraph names PI3KC2α^ΔN, ^ΔN+ΔC−C2, ^core 'and related mutants'; also called PI3KC2α^ΔN+ΔPX−C2 Wild-type (WT); source: Sf21 insect cells (baculovirus), purified (Nickel NTA, TEV cleavage, Superdex 200)
T1 sequence (looked up): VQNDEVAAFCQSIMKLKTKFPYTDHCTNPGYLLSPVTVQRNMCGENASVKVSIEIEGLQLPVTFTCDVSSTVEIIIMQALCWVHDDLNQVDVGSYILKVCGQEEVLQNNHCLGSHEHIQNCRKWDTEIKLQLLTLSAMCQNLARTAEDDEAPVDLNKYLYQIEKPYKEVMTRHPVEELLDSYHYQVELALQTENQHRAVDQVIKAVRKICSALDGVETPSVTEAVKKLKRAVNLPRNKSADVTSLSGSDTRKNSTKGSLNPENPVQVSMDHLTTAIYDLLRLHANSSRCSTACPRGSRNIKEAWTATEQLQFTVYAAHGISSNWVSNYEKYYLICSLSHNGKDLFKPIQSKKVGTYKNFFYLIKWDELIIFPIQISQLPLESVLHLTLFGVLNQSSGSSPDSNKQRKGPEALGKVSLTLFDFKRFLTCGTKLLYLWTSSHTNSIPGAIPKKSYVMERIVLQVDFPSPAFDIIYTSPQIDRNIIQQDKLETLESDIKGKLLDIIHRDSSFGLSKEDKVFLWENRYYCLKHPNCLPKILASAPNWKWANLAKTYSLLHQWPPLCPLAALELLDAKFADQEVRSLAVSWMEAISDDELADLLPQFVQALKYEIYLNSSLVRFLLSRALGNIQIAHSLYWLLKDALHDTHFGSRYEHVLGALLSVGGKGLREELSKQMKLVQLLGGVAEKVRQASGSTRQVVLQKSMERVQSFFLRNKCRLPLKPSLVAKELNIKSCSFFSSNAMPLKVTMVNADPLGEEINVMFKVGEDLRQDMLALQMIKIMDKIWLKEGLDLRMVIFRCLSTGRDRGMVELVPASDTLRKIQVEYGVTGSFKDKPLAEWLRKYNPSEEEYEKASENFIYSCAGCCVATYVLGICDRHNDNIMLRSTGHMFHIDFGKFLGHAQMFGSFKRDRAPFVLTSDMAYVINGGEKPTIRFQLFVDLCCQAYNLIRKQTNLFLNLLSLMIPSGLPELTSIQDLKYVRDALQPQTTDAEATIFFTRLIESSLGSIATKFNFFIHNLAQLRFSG
The experiment in a line: pull-down; 10 μg immobilized GST fusion protein as bait, 200 μg PI3KC2α^ΔN+ΔPX−C2 WT or RBD mutant in 500 μl binding buffer (20 mM Tris, pH 7.5, 100 mM NaCl), 1 h at 4 °C, three washes; SDS-PAGE and Coomassie blue staining, quantified with ImageJ. To be noted: both partners purified.

The target of test [2] is T2, PI3KC2α^ΔN+ΔPX−C2 RBD mutant (K426A, W458A, D461A, D462A) (mouse, UniProt Q61194 377-1400, K426A | W458A | D461A | D462A).
T2 construct: Phosphatidylinositol 3-kinase type 2α (PI3KC2α), mouse, amino acids 377-1,400, with four alanine substitutions in the RBD; source: Sf21 insect cells (baculovirus), purified (Nickel NTA, TEV cleavage, Superdex 200)
T2 sequence (looked up): T1 sequence (looked up) with K50A, W82A, D85A, D86A
Described as above. The settings on record: both partners purified.

Substitutions are numbered along the chain they refer to.

B1: GST-distal C2 (PI3KC2α amino acids 1,561–1,686) (domain or fragment, mouse, UniProt Q61194 1561-1686, looked up)
chain: GAVKLSVSYRNGTLFIMVMHIKDLVTEDGADPNPYVKTYLLPDTHKTSKRKTKISRKTRNPTFNEMLVYSGYSKETLRQRELQLSVLSAESLRENFFLGGITLPLKDFNLSKETVKWYQLTAATYL
notes: PI3KC2α, mouse, C-terminal (distal) C2 domain, amino acids 1,561-1,686; also called GST-C2; GST-tagged C2; source: E. coli (pGEX-4T-1), immobilized GST fusion protein
As for B1, the binding result in test [1] and in test [2] was “binds” each time.
